From article PMC2233703

Experiments:
[1] = target: sulfonylurea receptor SUR1 (UniProt Q09427)
[2] = target: sulfonylurea receptor SUR1 (UniProt Q09427); remark: listed apart in the source
[3] = target: sulfonylurea receptor SUR1 (UniProt Q09427); remark: listed apart in the source

Sequence of UniProt Q09427 (Q09427 whole entry): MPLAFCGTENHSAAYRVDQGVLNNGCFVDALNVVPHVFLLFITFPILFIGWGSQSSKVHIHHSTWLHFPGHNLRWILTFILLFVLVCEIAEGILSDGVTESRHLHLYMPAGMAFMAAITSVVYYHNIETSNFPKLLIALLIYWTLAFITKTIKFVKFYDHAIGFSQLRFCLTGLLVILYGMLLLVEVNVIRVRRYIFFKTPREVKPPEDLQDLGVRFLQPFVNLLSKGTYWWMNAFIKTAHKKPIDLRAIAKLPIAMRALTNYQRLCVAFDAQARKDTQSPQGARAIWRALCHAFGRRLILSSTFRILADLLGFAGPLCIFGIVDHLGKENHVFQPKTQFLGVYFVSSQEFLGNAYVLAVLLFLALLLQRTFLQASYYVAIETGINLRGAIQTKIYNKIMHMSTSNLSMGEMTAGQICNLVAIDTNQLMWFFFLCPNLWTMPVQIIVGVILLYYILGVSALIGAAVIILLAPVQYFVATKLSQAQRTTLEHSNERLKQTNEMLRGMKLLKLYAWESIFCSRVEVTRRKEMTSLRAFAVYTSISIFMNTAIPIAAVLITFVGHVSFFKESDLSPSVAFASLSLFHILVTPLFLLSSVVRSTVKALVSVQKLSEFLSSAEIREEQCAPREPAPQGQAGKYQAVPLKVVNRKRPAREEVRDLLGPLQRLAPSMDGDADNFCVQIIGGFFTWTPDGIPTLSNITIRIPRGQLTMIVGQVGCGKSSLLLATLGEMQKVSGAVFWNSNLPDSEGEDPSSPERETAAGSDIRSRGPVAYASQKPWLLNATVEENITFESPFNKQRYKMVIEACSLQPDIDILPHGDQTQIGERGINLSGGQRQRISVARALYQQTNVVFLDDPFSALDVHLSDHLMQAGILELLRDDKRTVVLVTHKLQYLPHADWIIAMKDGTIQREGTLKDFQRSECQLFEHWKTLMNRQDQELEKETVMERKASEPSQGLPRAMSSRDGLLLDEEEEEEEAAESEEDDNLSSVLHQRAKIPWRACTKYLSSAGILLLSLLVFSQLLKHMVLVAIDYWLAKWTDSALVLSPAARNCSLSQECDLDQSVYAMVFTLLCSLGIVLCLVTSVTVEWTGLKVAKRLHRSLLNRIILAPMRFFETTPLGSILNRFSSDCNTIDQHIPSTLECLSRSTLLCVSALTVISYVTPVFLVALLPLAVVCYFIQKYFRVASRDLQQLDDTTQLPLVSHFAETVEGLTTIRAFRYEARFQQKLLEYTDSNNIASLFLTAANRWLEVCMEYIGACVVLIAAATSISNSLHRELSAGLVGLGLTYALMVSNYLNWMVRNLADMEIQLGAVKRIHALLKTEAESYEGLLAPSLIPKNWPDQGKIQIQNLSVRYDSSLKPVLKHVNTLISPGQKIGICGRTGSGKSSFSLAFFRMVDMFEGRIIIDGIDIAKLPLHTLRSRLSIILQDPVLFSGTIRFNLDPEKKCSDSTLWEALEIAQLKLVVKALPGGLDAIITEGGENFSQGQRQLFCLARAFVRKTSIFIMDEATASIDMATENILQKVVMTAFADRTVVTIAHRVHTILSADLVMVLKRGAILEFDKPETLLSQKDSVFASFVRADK

reactivation by MgADP of ATP-inhibited channels, inside-out patch clamp [1]	inhibition of channel activity by 200 nM glyburide, inside-out patch clamp [2]	inhibition of channel activity by 0.5 μM glyburide, inside-out patch clamp [3]	Binder
46%	45%	–	Kir6.2 wild-type linked to GFP at the COOH terminus (natural protein) MLSRKGIIPEEYVLTRLAEDPAEPRYRTRERRARFVSKKGNCNVAHKNIREQGRFLQDVFTTLVDLKWPHTLLIFTMSFLCSWLLFAMVWWLIAFAHGDLAPGEGTNVPCVTSIHSFSSAFLFSIEVQVTIGFGGRMVTEECPLAILILIVQNIVGLMINAIMLGCIFMKTAQAHRRAETLIFSKHAVITLRHGRLCFMLRVGDLRKSMIISATIHMQVVRKTTSPEGEVVPLHQVDIPMENGVGGNGIFLVAPLIIYHVIDSNSPLYDLAPSDLHHHQDLEIIVILEGVVETTGITTQARTSYLADEILWGQRFVPIVAEEDGRYSVDYSKFGNTIKVPTPLCTARQLDEDRSLLDALTLASSRGPLRKRSVAVAKAKPKFSISPDSLS
6%	–	5.5%	Kir6.2 mutant R176C linked to GFP (natural protein) MLSRKGIIPEEYVLTRLAEDPAEPRYRTRERRARFVSKKGNCNVAHKNIREQGRFLQDVFTTLVDLKWPHTLLIFTMSFLCSWLLFAMVWWLIAFAHGDLAPGEGTNVPCVTSIHSFSSAFLFSIEVQVTIGFGGRMVTEECPLAILILIVQNIVGLMINAIMLGCIFMKTAQAHCRAETLIFSKHAVITLRHGRLCFMLRVGDLRKSMIISATIHMQVVRKTTSPEGEVVPLHQVDIPMENGVGGNGIFLVAPLIIYHVIDSNSPLYDLAPSDLHHHQDLEIIVILEGVVETTGITTQARTSYLADEILWGQRFVPIVAEEDGRYSVDYSKFGNTIKVPTPLCTARQLDEDRSLLDALTLASSRGPLRKRSVAVAKAKPKFSISPDSLS
